Measurements published in the nanobody polyreactivity screen of Harvey et al. (2022).

Assay: yeast display, Sf9 membrane polyspecificity reagent, FACS + sequencing; frameworks hold sequencing errors
In short: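 Nanobodies from a synthetic yeast display library (Saccharomyces cerevisiae BJ5465), induced 36–48 hours with galactose, were stained 1 hour at 4 °C with 10% biotinylated, detergent-solubilized Sf9 membrane reagent, enriched on streptavidin microbeads, then FACS-sorted. Anti-HA (expression) and streptavidin (reagent binding) fluorescence set low and high (top ~1%) gates. Polyreactivity labels come from the gate of origin. Genes were colony-PCR amplified, MiSeq 2 × 250 sequenced and filtered by CDR length.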

| Sequence | polyreactivity (PSR sort gate) |
| --- | --- |
| QVQLVESGGGLVQAGGSLRLSCAASGRIFYGYAMGWYRQAPGKERELVAAIRTSGGSTYYADSVKGRFTISRDNAKNTVYLQMNSLKPEDTAVYYCNAGIVPRNRYYTPYNYWGQGTQVTVSS | low polyreactivity |
| QVQLEESGGGLVQAGGSLRLSCAASGFTFELYAMGWYRQAPGKVRELVAAISYSGGSTYYADSVKGRFTISRDNAKNTVYLQMNSLKPEDTAVYYCNAVYWPYSGPVYTIVDYWGQGTQVTVSS | low polyreactivity |
| QVQLVESGGGLVQAGGSLRLSCAASGNIFYSYAMGWYRQAPGKERELVAAISSSGGGTYYADSVKGRFTISRDNAKNTVYLEMNSLKPEDTAVYYCATTARPTRYSSVRYYYWGQGTQVSVSS | high polyreactivity |
| QVQLVESGGGLVQAGGRLRLSCAASGFPFAVYAMGWYRQAPGKERELVATITSAGSTYYADSVKGRFTISRDTAKNTVYLQRNSLKPEDNEVYYCAAAGTYYRGDYGYWGQGTQVTVSS | low polyreactivity |
| QVQLVESGGGLVQAGGSLRLSCAASGSIFKEYAMGWYRQAPGKERELVATISWSGGSTYYADSVKGRFTISRDNAKNTVYLQMNSLKPEDTAVYYCNKRTPWWYVVRYDYWGQGTQVTVSS | high polyreactivity |
| QVQLVESGGGLVQAGGSLRLSCAASGIIFGRYAMGWYRQAPGKERELVAAISGSGGITYYADSVKGRFTISRDNAKNTVYLQMNSLKPEDTAVYYCATRKYLTYNYWGQGTQVTVSS | high polyreactivity |
| QVQHVESGGGLVQAGGSLRLSCAASGGTFADYTMGWYRQAPGKERELVAAITSSGGSTYYADSVKGRFTISRDNAKNTVYLQMNSLKTEDTAVYYCAALGYVAMGYWGQGTQVTVSS | high polyreactivity |
| QVQLVESGGGLVQAGGSLRLSCAASGSTIAYYAMGWDRQAPGKERELVAVINGITGSTYYADSVKGRFTISRDNEKNTVYLQMNSLKPEDTAVYYCNADYADVTDEGDYWGQGTQVTVSS | low polyreactivity |
| QVQLVESGGGLVQAGGSLRLSCAASGRTFLRYTMGWYRQAPGKERELVASITRGGSTYYADSVKGRFTISRDNAKNTVYLQMNSLKPEDTAVYYCAAGKALLSRYDYWGQGTQVTVSS | high polyreactivity |
| QVQLVESGGGLVQAGGSLRLSCAASGFTFGAYAMGWYRQAPGKERELVAAITGSGGNTFYADSVKGRFTISRDNAKNSVYLEMNCLKTEDTAVYYCAKTWYPWSRYGYYRRYDSWGQGTQVTVSS | low polyreactivity |
| QVQLVESGGGLVQAGGSLRLSCAASGSIFTHYPMGWYRQAPGKERELVAAISRRGGSTYYADSVKGRFTISRDNAKNTVYLQMNSLKPEDTAVYYCAKSPDTAKEYDYWGQGTQVTVSS | high polyreactivity |
| QVQLVESGGGLVQAGGSLRLSCAASGSIFYGNTMGWYRQAPGKEREFVAAINKSDDSTYYADSVKGRFTISRDNAKNTVYLQMNSLKPEDTAVYYCAADYLGRFDYNYWGQGTQVTVSS | low polyreactivity |
| QVQLVESGGGLVQAGGSLRLSCAASGSTFISYAMGWSRQAPGKERELVAAISRNGGRTYYADSVKGRFTISRDNAKNTVYLQMNSLKPEDTAVYYCAAAYNSYRFDYWGQGTQVTVSS | high polyreactivity |
| QVQLVESGGGLVQAGVSLRLSCASSGFTFHYYAMGWYRQAPGKERELVAAISWSSGRTYYADSVKGRFTISRDNAKNTVYLQMNSLKPEDTAVYYCAASSYNRGDYWGQGTQVTVSS | low polyreactivity |
| EVQLVESGGGLVQAGGSLRLSCAASGSTFRYNAMGWSRQAPGKEWEFVATISWTTGSTYYADSVKGRFTISRDNAKNTVYLQMNCLNAEDTAVYYCAAVASLFSDFRDYDYWGQGTQVTVSS | low polyreactivity |
| QVQLVESGGGLVQAGGSLRLSCAASGRTFASNAMGCYRQAPGKERELVAAITISGGRTYYADSVKGRFTISRDNAKNTVYLQMNSLKPEDTAVYYRAAAKHSWRPSYYWGGYWGQGTQVTVSS | low polyreactivity |
| QVQLVESGGGLVQAGGSLRLSCAASGSIFFRNAMGWYRQAPGKERELVATIDWSGGYTDYADTVKGRFTISRDNAKNTVYLQMNSLKPEETAVYYCATGRYDRYYNFWYYYWGQGPQVTVSS | high polyreactivity |
| QVQLVESGGGLVQAGGSLRLSCAASGSTFSLYAMGWYRQAPGKERELVASSRWSGGRTYDADSVKGRFTISRDNAKNTVYLQMNSLKPEDTAVYYCAAAWRYGYGYLGQGTQVTVSS | high polyreactivity |
| QVQLVESGGGLVQAGGSLRLSCAASGRIFVVYAMGWYRQAPGKERELVASISRGGRTYYADSVKGRFTISRDNAKNTVYLQMNSLKPEDTAVYDCAVVVYLKNRDLFDYWGQGTQVTVSS | low polyreactivity |
| QVQLVDSGGGLVQAGGSLRLSCAASGFIFPINAMGWYRQAPGKERELVAAITGGGSTSYADSVKGRFTISRDNAKNTVYLQMNSLKPEDTAVYYCATDRLTYTKYGYWGQGTLVTVSS | low polyreactivity |
| QVQLVESGGGLVQAGGSLRLSCAASGSTYARYAMGWYRQAPGKEREFVAAISASGGRTYYADSVKGRFTISRDNAKNTVYLQMNSLKPEDTPVDYCAVRVYAKYFAKYDYWGQGTQVTVSS | high polyreactivity |
| QVQLVDSGGGLVQAGGSLRLSCAASGPIFKRYAMGWYRQAPGKERELVASITTSGDSTYYADSVKGRFTISRDNAKNTVYLQMNSLKPEDTAVYYCAGRSYSGRRYDYWGQGTQVTVSS | high polyreactivity |

| Sequence | polyreactivity (PSR sort gate) |
| --- | --- |
| QVQLVESGGGLVQAGGSLRLSCAASGFIFHYYAMGWYRQAPGKERELVAAISKTGGSTYYADSVKGRFTISRDNAKNTVYLQMNSLKPEDTAVYYCAVARSAYYRGNHWGQGTQVTVSS | high polyreactivity |
| QVQHVESGGGLVQAGGSLRLSCAASGSTFGKNTRGWSRQAPGKERELVAAISSRGGSTYYADSGKGRFTISRDNAKNTVYLQMNSLKPEDTAVYYCAAYSVSLGYDYWGQGTQVTVST | high polyreactivity |
| QVQLVESGGGLVQAGGSLRLSCAASGRILYYYDMGWYRQAPGKERELVARIGGTYYADSVKGRFTISRDNAKNTVYLQMNSLKPEDTAVYYCAAEYGYDFFRSYQEYGYWGQGTQVTVSS | low polyreactivity |
| QVQLVESGGGLVQAGGSLRLSCAASGSTFPTNAMGWYRQAPGKERELVATITSTGSTKYADSVKGRFTISRDNAKNTVYLQMNSLKPEDTAVYYCAADEYAYASRFYWALIHDYWGQGTQVTVSS | low polyreactivity |
| QVQLVESGGGLVQAGGSLRLSCAASGIIFRYYAMGWYRQAPGKERELVAAITWSGGTYYADSVKGRFTISRDNAKKTVYLQMNSLKPEETAVYYCAAVYYGYRDRTDYGYWGQGTQVTVSS | high polyreactivity |
| QVQLVESGGGLVQAGGSLRLISAASGRTFYSNAMGWYRQAPGKERELVAAITKSGGRTYYADSVKGRFTISRDNAKNTDYLQMNSLIPEDTAVYYCKALVAAYYGYDYWGQGTQVTVSS | high polyreactivity |
| QVQLVESGGGLVQAGGSLRLSCAASGRIFSHYAMGWYRQAPGKERELVAAITWSGGRTYYADSVKGRFTISRDNAKNTVYLQMNSLKPEDTAVYYCNAYPSSSLFDYWGQGTQVTVSS | low polyreactivity |
| QVQLVESGGGLVQAGGSLRLSCAASGRIFRYYAMGWYRQATGKQRELVAAISSGVGNTYYADSVKGRFTISRDNAKNTVYLQMNSLKPEDTAVYYCNAKWRKFGTVRYDYWGQGTQVTVSS | high polyreactivity |
| QVQLVESGGGLVQAGGSLRLSCAASGITFWTYAMGGYRQAPGKERELVAAISKTVGSTFYADSVKGRFTISRDNAKNTVYLQMNSLKPEDTEVYYCNARRRRTVGWQYNYWGQGTQVTVSS | high polyreactivity |
| QVQLVESGGGLVQAGGSLRLSCAASGRIFYPNAMGWYRQAPGKERELVAAISSGGRTNYADSVKGRFTISRDNAKNTVYLQMNSLKPEDNAVYYCAARDRSQYTSTYAFGGGYWGHGTQVTVSS | low polyreactivity |
| QVQLVESGGGLVQAGGSLRLSCAASGSTFTVNGMGWYRQAPGKERELVAAITWSGGSTYYADSVKGRFTISRDTAKNTVYLQMNSLKPEDTAVYYCAADENLYITGYDYWGQGTQVNVSS | low polyreactivity |
| QVQLVESGGGLVQAGGSLRLSCAASGSTFQTYAMGWSRQAPGKERELVAAITWRGGSTYYADSVKGRFTISRDNAKNTVYLQMNSLKPDDTAVYYCAAKWNGSHDHRAAYESWGQGTQVTVSS | low polyreactivity |
| QVQLVESGGGLLQAGGSLRLICAASGSIFGANTMGWYRPAPGKERELVAGITSGARTYYADSVKGRFTMSRDNAKNTVYLQMNSLQPEDTAVYYCAANYAWRRYGYWGNGTQVTVSS | high polyreactivity |
| QVQLVESGGGLVQAGGSLRLSCAASGGILYYYAMGWYRQAPGKEREMVAAISSGGRTNYADSVKGRFTISRDNAMNTVYLQMNSLNPEDTAVYYCAARGATGFRRYGVTHYYYWGQGTQVNVSS | high polyreactivity |
| QVQLVESGGGLVQAGCSLRLSCAASGRTFLLYAMGWYRQAPGKERELVAAITWGGGSTYYADSVKGRFTISRDNAKNIVYLQMNCLKPEDTAVYYCNAYYWSRMDYWGQGTQVTVSS | low polyreactivity |
| KVQVVESGGGLVQAGGSLRLSCAASGSTFYYNAMGWYTQAPGKERELVAAITGSGTGTNYADSVKGRFTISRDNAKNTVYLQMNSLKPEDTAVYYCAADYVWRGDPINSYLSWYVYWGQGTQVTVSS | low polyreactivity |
| QVQLVESGGGLVQAGGSLRLSCAASGSTFPYPYTMGWYREAPGKERELVAVISRTGGSTFYADSVKRRFTISRDNAKNTVYLQMNSLKPEDTAVYYCAARRDGWTFWKYDYWGQGTQVTVSS | high polyreactivity |
| QVQLVESGGGLVQAGGSLRLRCAASGSTFVPYAMGWYRQAPWKERELVAAITWNGGRTYYADSVKGRYTISRDNANNTVYLQMNSLKPEDTAVYFCNGLSYTWACYYWGQGTRVTVSS | high polyreactivity |
| QVQLVESGGGLVQAGGSLRLSCAASGNICRINGMGWYRQAPGKERELVASITRSGSTYYADSVKGRFTISRDNAKNTVYLQMNSLKPEDTAVYYCNADGWYWQAQGYDYWGQGTQVTVSS | low polyreactivity |
| QVQLVESGGCIVQAGGSLRLSCAASGLIFGPYAMGWYRQAPGKERELVAAISARGGSTYYADSVKGRFTISRDNAKNTVYLQMNSLKPEDTAVYYCAARQYSVNTHYGYNYWGQGTQVTVSS | high polyreactivity |
| QVQLVESGGGLVQAGGSLRLSCAASGFTIKYNTMGWYRQAPGKERELVAAITSNTGSTYYADSVKGRFTISRDNAKNTVYLQMNSLKPEDTAVYYCAVTSYYRRYGYWGQGTQVTVSS | high polyreactivity |
